Results from patent US20230212549A1, “COMPOUNDS COMPRISING A […] LIGAND AND USE THEREOF” (priority 2021, published 2023).
Bridge positions count the residues as written; N and C are the ends.

B1: Hex-[Cys(tMeBn(DOTA-AET))-Pro-Pro-Thr-Gln-Phe-Cys]-OH (peptide)
peptide: Hex-CPPTQFC-OH
modifications: bridge 1-7; not fully specified (bridges); printed as Hex-[Cys(tMeBn(DOTA-AET))-Pro-Pro-Thr-Gln-Phe-Cys]-OH
B2: Hex-[Cys(tMeBn(DOTA-PP))-Pro-Pro-Thr-Gln-Phe-Cys]-Asp-NH2 (peptide)
peptide: Hex-CPPTQFCD-NH2
modifications: bridge 1-7; not fully specified (bridges); printed as Hex-[Cys(tMeBn(DOTA-PP))-Pro-Pro-Thr-Gln-Phe-Cys]-Asp-NH2

How the values were obtained:
[1] = target: T1, Potassium Channel hERG (human) (human), Q12809; test: radioligand displacement ([3H] Dofetilide), 10 µM; settings: remark: other sources report otherwise
T1 chain: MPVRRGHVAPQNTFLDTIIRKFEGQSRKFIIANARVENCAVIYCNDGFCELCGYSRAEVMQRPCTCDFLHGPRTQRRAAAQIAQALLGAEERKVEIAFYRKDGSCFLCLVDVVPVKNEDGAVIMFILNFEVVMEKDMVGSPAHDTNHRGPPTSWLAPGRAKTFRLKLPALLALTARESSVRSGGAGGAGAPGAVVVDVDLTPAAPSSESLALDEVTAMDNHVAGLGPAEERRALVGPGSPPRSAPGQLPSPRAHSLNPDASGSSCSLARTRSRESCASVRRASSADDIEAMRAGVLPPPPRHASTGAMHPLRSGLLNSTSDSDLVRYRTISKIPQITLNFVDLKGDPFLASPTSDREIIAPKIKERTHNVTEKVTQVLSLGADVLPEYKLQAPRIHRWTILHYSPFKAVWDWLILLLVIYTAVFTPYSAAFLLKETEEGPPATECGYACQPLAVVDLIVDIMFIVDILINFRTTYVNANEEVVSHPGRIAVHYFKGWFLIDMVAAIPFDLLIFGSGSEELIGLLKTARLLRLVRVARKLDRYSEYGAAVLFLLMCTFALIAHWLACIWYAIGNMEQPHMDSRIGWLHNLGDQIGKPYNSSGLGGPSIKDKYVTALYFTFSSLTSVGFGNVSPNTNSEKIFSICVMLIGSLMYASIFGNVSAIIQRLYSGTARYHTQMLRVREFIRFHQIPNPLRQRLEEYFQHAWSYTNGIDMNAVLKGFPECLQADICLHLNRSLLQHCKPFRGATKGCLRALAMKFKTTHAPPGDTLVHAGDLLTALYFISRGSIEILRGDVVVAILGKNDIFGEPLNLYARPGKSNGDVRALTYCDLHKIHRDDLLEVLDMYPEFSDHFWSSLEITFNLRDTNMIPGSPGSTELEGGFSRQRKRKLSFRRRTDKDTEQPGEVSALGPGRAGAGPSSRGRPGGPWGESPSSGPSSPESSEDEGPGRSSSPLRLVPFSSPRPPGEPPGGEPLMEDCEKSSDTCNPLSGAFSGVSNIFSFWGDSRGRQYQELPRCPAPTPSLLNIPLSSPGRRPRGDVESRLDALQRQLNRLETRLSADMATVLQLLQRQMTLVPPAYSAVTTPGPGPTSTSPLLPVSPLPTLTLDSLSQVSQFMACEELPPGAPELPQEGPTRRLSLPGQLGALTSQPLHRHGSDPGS

[2] = target: DPP8, Q6V1X1; test: cell-based or functional assay
DPP8, Q6V1X1, sequence (Q6V1X1 whole entry): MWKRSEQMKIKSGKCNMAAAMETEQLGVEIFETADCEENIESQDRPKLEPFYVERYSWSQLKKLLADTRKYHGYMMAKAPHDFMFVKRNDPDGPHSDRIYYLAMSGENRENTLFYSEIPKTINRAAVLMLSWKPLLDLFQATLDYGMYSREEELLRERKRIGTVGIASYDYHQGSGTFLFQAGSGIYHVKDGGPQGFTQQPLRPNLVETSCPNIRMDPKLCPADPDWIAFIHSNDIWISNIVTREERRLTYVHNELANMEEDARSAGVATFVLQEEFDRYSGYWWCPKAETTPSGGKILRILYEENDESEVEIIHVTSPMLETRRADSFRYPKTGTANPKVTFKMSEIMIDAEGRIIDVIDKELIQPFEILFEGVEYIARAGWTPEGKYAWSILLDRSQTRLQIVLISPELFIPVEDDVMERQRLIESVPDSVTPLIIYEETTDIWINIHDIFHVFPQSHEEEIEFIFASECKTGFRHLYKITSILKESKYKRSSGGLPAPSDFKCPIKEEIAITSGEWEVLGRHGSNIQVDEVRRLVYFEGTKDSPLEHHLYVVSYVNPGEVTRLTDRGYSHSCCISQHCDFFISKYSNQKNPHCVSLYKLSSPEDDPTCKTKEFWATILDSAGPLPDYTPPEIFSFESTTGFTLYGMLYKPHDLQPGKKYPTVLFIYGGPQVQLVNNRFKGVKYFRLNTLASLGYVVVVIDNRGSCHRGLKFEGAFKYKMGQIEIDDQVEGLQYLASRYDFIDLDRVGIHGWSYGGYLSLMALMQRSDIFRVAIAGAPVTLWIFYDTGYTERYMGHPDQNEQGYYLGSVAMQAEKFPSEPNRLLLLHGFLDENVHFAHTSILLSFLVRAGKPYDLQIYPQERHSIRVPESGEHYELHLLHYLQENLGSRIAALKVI

[3] = target: DPP7, Q9UHL4; test: cell-based or functional assay
[4] = target: T2, Renin, P00797; test: cell-based or functional assay
T2 chain: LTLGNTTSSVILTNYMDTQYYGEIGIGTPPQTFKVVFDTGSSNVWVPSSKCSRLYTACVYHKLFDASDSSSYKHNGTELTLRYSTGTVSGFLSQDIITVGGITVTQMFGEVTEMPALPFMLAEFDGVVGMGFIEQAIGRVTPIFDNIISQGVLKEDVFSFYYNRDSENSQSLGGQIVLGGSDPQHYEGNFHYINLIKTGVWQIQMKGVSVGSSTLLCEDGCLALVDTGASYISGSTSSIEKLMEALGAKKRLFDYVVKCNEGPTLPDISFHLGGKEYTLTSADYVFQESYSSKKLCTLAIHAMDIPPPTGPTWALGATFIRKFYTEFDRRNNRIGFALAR

[5] = target: Cathepsin S, P25774; test: cell-based or functional assay
Cathepsin S, P25774, sequence (P25774 115-331 limits assumed): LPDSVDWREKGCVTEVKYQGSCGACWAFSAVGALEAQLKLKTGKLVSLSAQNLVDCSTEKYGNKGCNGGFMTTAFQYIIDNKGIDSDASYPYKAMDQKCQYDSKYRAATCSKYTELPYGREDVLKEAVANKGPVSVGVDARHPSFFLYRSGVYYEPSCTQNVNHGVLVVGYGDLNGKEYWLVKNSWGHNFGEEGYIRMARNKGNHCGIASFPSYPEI

[6] = target: Ataxin3, P54252; test: cell-based or functional assay
Ataxin3, P54252, sequence (P54252 whole entry): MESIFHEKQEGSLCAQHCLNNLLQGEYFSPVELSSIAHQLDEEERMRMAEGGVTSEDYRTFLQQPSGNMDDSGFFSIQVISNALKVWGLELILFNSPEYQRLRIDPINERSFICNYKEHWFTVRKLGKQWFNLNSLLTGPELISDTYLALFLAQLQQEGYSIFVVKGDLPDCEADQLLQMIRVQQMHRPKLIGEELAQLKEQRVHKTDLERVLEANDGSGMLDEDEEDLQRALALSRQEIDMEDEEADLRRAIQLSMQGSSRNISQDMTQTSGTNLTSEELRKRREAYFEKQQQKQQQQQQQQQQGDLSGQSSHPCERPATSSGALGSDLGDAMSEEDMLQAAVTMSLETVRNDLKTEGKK

[7] = target: Ubiquitin carboxyl-terminal hydrolase 14, P54578; test: cell-based or functional assay
Ubiquitin carboxyl-terminal hydrolase 14, P54578, sequence (P54578 whole entry): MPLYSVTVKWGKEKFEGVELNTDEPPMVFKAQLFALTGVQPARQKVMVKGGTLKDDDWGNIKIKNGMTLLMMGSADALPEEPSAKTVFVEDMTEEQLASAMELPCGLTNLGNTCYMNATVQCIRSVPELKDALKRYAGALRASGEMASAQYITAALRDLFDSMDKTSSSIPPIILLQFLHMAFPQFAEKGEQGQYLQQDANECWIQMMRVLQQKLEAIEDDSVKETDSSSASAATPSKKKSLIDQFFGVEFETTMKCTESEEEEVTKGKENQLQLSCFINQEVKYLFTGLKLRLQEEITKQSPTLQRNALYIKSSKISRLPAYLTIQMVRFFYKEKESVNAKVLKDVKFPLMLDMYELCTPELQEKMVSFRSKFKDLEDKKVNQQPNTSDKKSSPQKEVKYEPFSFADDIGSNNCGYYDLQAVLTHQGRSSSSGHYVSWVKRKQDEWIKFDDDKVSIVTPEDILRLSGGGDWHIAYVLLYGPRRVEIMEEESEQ

[8] = target: T3, Caspase-3, P42574; test: cell-based or functional assay
T3 chain: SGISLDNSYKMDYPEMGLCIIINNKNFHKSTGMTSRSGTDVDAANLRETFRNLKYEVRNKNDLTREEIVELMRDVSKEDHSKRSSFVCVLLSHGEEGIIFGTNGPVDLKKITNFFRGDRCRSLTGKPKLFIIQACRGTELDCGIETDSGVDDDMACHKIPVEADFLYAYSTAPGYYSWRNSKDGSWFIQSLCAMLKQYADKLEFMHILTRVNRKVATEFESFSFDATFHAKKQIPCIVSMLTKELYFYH

[9] = target: T4, Caspase-6, P55212; test: cell-based or functional assay
T4 chain: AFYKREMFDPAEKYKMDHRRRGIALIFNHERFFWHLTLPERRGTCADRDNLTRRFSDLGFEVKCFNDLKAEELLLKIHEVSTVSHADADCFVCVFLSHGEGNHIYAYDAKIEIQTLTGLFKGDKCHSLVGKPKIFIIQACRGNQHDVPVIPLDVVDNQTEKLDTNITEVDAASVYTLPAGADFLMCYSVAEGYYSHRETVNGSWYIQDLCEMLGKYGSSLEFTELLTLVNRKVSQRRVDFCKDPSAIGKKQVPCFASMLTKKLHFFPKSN

[10] = target: FAP (protease specificity screen, BPS Biosciences), Q12884; test: cell-based or functional assay
FAP (protease specificity screen, BPS Biosciences), Q12884, sequence (Q12884 27-760 limits assumed): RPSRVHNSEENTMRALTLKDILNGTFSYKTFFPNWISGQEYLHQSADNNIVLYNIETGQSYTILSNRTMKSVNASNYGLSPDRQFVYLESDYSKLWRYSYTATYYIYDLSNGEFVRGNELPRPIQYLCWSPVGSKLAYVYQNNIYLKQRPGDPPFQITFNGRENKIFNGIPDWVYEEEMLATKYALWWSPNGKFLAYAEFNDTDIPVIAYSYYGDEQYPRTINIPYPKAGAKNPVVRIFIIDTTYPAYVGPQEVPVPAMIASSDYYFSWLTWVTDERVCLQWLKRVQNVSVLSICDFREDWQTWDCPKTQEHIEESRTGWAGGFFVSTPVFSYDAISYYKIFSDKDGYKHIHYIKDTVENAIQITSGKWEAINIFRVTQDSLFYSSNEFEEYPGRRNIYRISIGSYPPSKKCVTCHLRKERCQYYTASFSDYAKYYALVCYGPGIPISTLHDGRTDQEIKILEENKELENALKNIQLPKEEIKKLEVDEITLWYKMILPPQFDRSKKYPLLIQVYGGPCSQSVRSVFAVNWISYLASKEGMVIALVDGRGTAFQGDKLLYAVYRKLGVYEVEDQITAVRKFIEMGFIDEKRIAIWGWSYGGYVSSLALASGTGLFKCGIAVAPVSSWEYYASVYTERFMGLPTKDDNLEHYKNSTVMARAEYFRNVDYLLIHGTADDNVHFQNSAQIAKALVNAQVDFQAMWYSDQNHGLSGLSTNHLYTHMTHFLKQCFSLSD

[11] = target: Beta secretase, P56817; test: cell-based or functional assay
Beta secretase, P56817, sequence (P56817 22-457 limits assumed): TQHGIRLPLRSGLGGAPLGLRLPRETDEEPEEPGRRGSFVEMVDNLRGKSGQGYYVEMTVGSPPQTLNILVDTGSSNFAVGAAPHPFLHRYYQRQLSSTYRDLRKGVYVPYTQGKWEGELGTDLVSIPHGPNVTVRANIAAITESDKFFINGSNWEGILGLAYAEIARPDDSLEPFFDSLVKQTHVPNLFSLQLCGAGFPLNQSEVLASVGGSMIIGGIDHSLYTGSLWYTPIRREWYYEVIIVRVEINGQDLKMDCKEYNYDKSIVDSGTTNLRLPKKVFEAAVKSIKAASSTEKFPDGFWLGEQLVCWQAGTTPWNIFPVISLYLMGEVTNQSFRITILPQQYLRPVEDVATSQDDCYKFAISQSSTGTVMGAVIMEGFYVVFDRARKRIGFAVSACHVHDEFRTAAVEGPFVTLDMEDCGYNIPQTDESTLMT

[12] = target: T5, Deubiquitinase OTUD6B, Q8N6M0; test: cell-based or functional assay
T5 chain: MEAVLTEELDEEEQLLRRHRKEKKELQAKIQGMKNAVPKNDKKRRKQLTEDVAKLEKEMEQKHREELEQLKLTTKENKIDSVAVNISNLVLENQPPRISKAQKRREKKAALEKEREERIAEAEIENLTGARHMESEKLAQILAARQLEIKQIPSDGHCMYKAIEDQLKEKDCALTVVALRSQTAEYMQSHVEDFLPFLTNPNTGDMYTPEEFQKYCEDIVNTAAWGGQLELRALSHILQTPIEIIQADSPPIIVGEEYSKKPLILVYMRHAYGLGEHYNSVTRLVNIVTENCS

Row | Binder | % Inhibition of Specific Binding [1] [%] | Percentage inhibition (%) at 1 µM [2] [%] | Percentage inhibition (%) at 10 µM [2] [%] | Percentage inhibition (%) at 1 µM [3] [%] | Percentage inhibition (%) at 10 µM [3] [%] | Percentage inhibition (%) at 1 µM [4] [%] | Percentage inhibition (%) at 10 µM [4] [%] | Percentage inhibition (%) at 1 µM [5] [%] | Percentage inhibition (%) at 10 µM [5] [%] | Percentage inhibition (%) at 1 µM [6] [%] | Percentage inhibition (%) at 10 µM [6] [%] | Percentage inhibition (%) at 1 µM [7] [%] | Percentage inhibition (%) at 10 µM [7] [%] | Percentage inhibition (%) at 1 µM [8] [%] | Percentage inhibition (%) at 10 µM [8] [%] | Percentage inhibition (%) at 1 µM [9] [%] | Percentage inhibition (%) at 10 µM [9] [%] | Percentage inhibition (%) at 1 µM [10] [%] | Percentage inhibition (%) at 10 µM [10] [%] | Percentage inhibition (%) at 1 µM [11] [%] | other results
1 | B1 | 6 | 1 | 11 | -1 | -7 | 0 | -1 | -10 | -23 | 2 | -1 | 1 | 2 | -2 | -1 | 6 | -3 | 97 | 99 | 1 | Percentage inhibition (%) at 10 µM [11]: 7%; Percentage inhibition (%) at 1 µM [12]: 0%; Percentage inhibition (%) at 10 µM [12]: 0%
2 | B2 | 2 | 1 | 5 | 2 | -3 | -1 | 3 | 3 | 18 | 1 | 10 | -1 | 5 | 1 | -2 | 1 | -1 | 98 | 99 | -8 | Percentage inhibition (%) at 10 µM [11]: -5%; Percentage inhibition (%) at 1 µM [12]: 2%; Percentage inhibition (%) at 10 µM [12]: 15%
